# Measurements published in patent publication US20200165325A1.
# Numbering of substitutions follows the chain as printed. Read-outs that look alike come from different tables or passages of the source.
# B1: 3BNC55 IgG (wild type) (antibody, V domains shown)
# VH: QVQLVQSGTAVKRPGASVRVSCQASGYTFTDYFIYWWRQAPGQGLEWLGWINPLTSQPSYPSRFQGRLTLTRDTFDEMLYMDLRGLRSDDTGIYFCARRHSDYCDFDIWGSGTQIIVSS
# VL: DIQMTQSPSSLSASVGDKVTITCQTSAGYLNWYQQRRGRAPKLLMYDGSRLVTGVPSRFSGRRWGTQYNLTIGSLQPEDIATYYCQVYEFFGPGTRLDLKS
# B2: 12A12 IgG (wild type) (antibody, V domains shown)
# VH: SQHLVQSGTQVKKPGASVRISCQASGYSFTDYVLHWWRQAPGQGLEWMGWIKPVYGARNYARRFQGRINFDRDIYREIAFMDLSGLRSDDTALYFCARDGSGDDTSWHLDPWGQGTLVIVSA
# VL: DIQMTQSPSSLSASVGDRVTITCQAGQGIGSSLQWYQQKPGKAPKLLVHGASNLHRGVPSRFSGSGFHTTFSLTISGLQRDDFATYFCAVLEFFGPGTKVEIKR
# B3: 3BNC60 IgG (wild type) (antibody)
# heavy: QVHLSQSGAAVTKPGASVRVSCEASGYKISDHFIHWWRQAPGQGLQWVGWINPKTGQPNNPRQFQGRVSLTRQASWDFDTYSFYMDLKAVRSDDTAIYFCARQRSDFWDFDVWGSGTQVTVSS
# light: DIQMTQSPSSLSARVGDTVTITCQANGYLNWYQQRRGKAPKLLIYDGSKLERGVPARFSGRRWGQEYNLTINNLQPEDVATYFCQVYEFIVPGTRLDLKRTVA
# B4: 3BNC117 IgG (wild type) (antibody)
# heavy: B3 heavy with H3Q, S5L, K28N, S30R, H32Y, Q73H, Y81F, V90L, I97V, F107Y
# light: B3 light with R14S, A56S, V79I, I90V
# Columns and labels:
# [1] = molecular target: HIV-1 Env of strain T257-31 (HIV-1)
# [2] = molecular target: HIV-1 Env of strain CAP45.2.00.G3 (HIV-1)
# [3] = molecular target: HIV-1 Env of strain QH0692.42 (HIV-1)
# [4] = molecular target: HIV-1 Env of strain ZM214M.PL15.11 (HIV-1)
# [5] = molecular target: HIV-1 Env of strain SC422661.8 (HIV-1)
# [6] = molecular target: HIV-1 Env of strain TRO.11 (HIV-1)
# [7] = molecular target: HIV-1 Env of strain AC10.0.29 (HIV-1)
# [8] = molecular target: Env (gp120) of HIV-1 strain QH0692.42 (HIV-1)
# [9] = molecular target: Env (gp120) of HIV-1 strain ZM214M.PL15 (HIV-1)
# [10] = molecular target: Env (gp120) of HIV-1 strain CAP45.2.00.G3 (HIV-1)
# [11] = molecular target: Env (gp120) of HIV-1 strain SC422661.8 (HIV-1)
# [12] = molecular target: Env (gp120) of HIV-1 strain T257-31 (HIV-1)
# [13] = molecular target: Env (gp120) of HIV-1 strain AC10.0.29 (HIV-1)
# [14] = molecular target: Env (gp120) of HIV-1 strain TRO.11 (HIV-1)
# [15] = molecular target: Env (gp120) of HIV-1 strain C2101.c01 (HIV-1)
# [16] = molecular target: Env (gp120) of HIV-1 strain 3016.v5.c45 (HIV-1)
# [17] = molecular target: HIV-1 Env of strain CAP210.2.00.E8 (HIV-1)
# [18] = molecular target: HIV-1 Env of strain Du172.17 (HIV-1)
# [19] = molecular target: HIV-1 Env of strain CAP45.2.00.G3 (HIV-1); remark: listed apart in the source
# [20] = molecular target: HIV-1 Env of strain SC422661.8 (HIV-1); remark: listed apart in the source
# [21] = molecular target: HIV-1 Env of strain TRO.11 (HIV-1); remark: listed apart in the source
# [22] = molecular target: HIV-1 Env of strain AC10.0.29 (HIV-1); remark: listed apart in the source
Molecule,In vitro neutralization IC50 [2],In vitro neutralization IC50 [3],In vitro neutralization IC50 [4],In vitro neutralization IC50 [5],In vitro neutralization IC50 [6],In vitro neutralization IC50 [7],In vitro neutralization IC50 [17],In vitro neutralization IC50 [18],In vitro neutralization IC50 [19],In vitro neutralization IC50 [20],In vitro neutralization IC50 [21],In vitro neutralization IC50 [22],also measured
"NIH45-46 heavy chain paired with VRC01 light chain, IgG (antibody)",2.1 µg/mL,0.9 µg/mL,0.6 µg/mL,0.2 µg/mL,0.3 µg/mL,1 µg/mL,–,–,–,–,–,–,In vitro neutralization IC50 [1]: 0.6 µg/mL
NIH45-46 Δ99a-99d (antibody),–,–,–,–,–,–,–,–,–,–,–,–,neutralization IC50 [8]: 3.7 µg/mL; neutralization IC50 [9]: 2.2 µg/mL; neutralization IC50 [10]: > 50 µg/mL; neutralization IC50 [11]: 1.4 µg/mL; neutralization IC50 [12]: 7 µg/mL; neutralization IC50 [13]: 13 µg/mL; neutralization IC50 [14]: > 50 µg/mL
VRC01 (antibody),–,–,–,–,–,–,–,–,–,–,–,–,neutralization IC50 [15]: 0.36 µg/mL; neutralization IC50 [16]: 0.16 µg/mL
VRC01 IgG (antibody),1.8 µg/mL,0.7 µg/mL,0.8 µg/mL,0.2 µg/mL,0.5 µg/mL,0.8 µg/mL,–,–,–,–,–,–,–
"VRC01 heavy chain paired with NIH45-46 light chain, IgG (antibody)",> 50 µg/mL,1.2 µg/mL,1.8 µg/mL,0.4 µg/mL,24 µg/mL,4.5 µg/mL,–,–,–,–,–,–,In vitro neutralization IC50 [1]: 15 µg/mL
B1,–,–,–,–,–,–,> 50 µg/mL,2 µg/mL,> 50 µg/mL,0.3 µg/mL,7.6 µg/mL,> 50 µg/mL,–
B2,–,–,–,–,–,–,> 50 µg/mL,0.2 µg/mL,0.4 µg/mL,0.2 µg/mL,0.3 µg/mL,0.6 µg/mL,–
B3,–,–,–,–,–,–,4.7 µg/mL,0.05 µg/mL,10 µg/mL,0.1 µg/mL,0.07 µg/mL,13 µg/mL,–
B4,–,–,–,–,–,–,11 µg/mL,0.04 µg/mL,16 µg/mL,0.07 µg/mL,0.6 µg/mL,6.5 µg/mL,–
